assay: soluble on expression in E. coli; label from the status in PepcDB or PDB records

Row | Sequence | soluble on expression in E. coli
1 | MPLEASELKPTAGPLEASELKPTAGPLEASELKPTAGPLEASELKPTAGPLEASELKPTAGPLEASELKPTAGPLEASELKPTAGMTDAFIFENKKAAFLTLGCKLNFAETSTIGKALAEQGVRPVREGEKADICVINTCSVTELADKKCRNAIRKLHKEHPGALMIVTGCYAQLKPEEIARIDGVDIVLGADEKLDLVSILSQRPIQGFAEQTILTTPTKDIRKFQPGCSADDRTRHFLKVQDGCDYHCSYCTIPKARGRSRNGSIESLVRQAEAVAAEGGKEIVLTGVNIGDFGRSTGETFLDLLRALDQVEGIERYRIGSIEPNLLSDELIDFCASAHRIAPHFHMPLQSGSDDVLKLMRRRYDTALFRERVEHIRRALPHAFIGIDVIVGTRGEKPEFFEDCYSFLQDKISFSRLHVFSYSERPGTQALQIPYKVDAREKQRRSRRLLDLSDLRLAEFYRSQEGTHRRVLWEDVCHEGLMQGFTENYIRVAAPYAADSVGKVEEIVLGKTDPSGEYVQTADTIFPLEHHHHHH | soluble
2 | MGSDKIHHHHHHMSDIKFNSMTHFEAVARLGGVAKAAQELQVTPSAVSQQLRLLEHQLGVRLFQREKRHLSLTIDGERLFQTTTQAFESIREVRNAIVRQRESFQLSLRVSPSFGEKWLAPRLAEFSKDYPSWNLRVDATPNFSDFETEVIDLDLRYGDGGWAGLYSDCVVNDLILPMCSPSYLAELRGLSVDPREQLGHARLIDSVKAYFRWDYWLPRNGIQGARMTYPYRFDRSSMSVQLAKDGAGVVLESTTIAFEDLVSGSLVPVSTEFDVIEFPGYWLVCPSRHMNRRAVRLFSDWVSRVGQRDTDRARQFLSESGLHISFERRPHFGTPDDRAATML | not soluble
3 | MSGRKFSFEVTKTSSAPAATLFRLVTDGGNWATWAKPIVAQSSWARRGDPAPGGIGAIRKLGMWPVFVQEETVEYEQDRRHVYKLVGARTPVQDYFGEVVLTPNASGGTDLRWSGSFTEKVRGTGPVMRAALGGAVRFFAGQLVKAAEREAVRR | soluble
4 | MAHHHHHHMLSRLSERCTIATGLEQVLRHYVWSAAWLRDAEPAAAASENIDLSGLMERAGRAAYDVFANLYTSQKHWLILVGSGNNGGDGYVIARHAREAGKIVTVLRMPHSKPLPTEAASAQHAWKAVGGTESTMSPGAPLQLPADVDLIVDGLLGTGICGPPREQYADVIRHINGLPVPRVAIDIPSGLNAETGEAAGACVKADHTATFICLKPGLLTGQAKDYVGQLHYRSLGLEDWMTAPERMRVALCRRVALDDVYEYFGIRRSALAHKGSCGKAILVGGDHGFGGAALMSAEACVTVGAGLTRVLTRPEYAAPLLTRCPEAMVTAVETDTGEQLKQQMLEAFEWASTLAVGPGLGTGAYGQAALTAALRHAELHQDKTLVLDADALNLLAGCLHGREGGAAAGARKHLPVLPNSIITPHPGEAARLLDCRVADVEKDRLAAARRLAAILGGTCLLKGPGTIVHCHSSAKTAIVDAGNAGMASGGMGDVLTGLLAGLAAQRMHDTFDTTCAGALVHGVAADMVAAEDGRGTRGIRATELIHRVPLIVNASGPSPASRQRPSGQ | soluble
5 | LGKFSQTCYNSAIQGSVLTSTCERTNGGYNTSSIDLNSVIAAVDGSLKWPSNFIEACRNTQLAGSSELAAECKTAAGQFVSTKINLDDHIANIDGTLKYE | soluble
6 | VKEIIDGFLKFQREAFPKREALFKQLATQQSPRTLFISCSDSRLVPELVTQREPGDLFVIRNAGNIVPSYGPEPGGVSASVEYAVAALRVSDIVICGHSNCGAMTAIASCQCMDHMPAVSHWLRYADSARVVNEARPHSDLPSKAAAMVRENVIAQLANLQTHPSVRLALEEGRIALHGWVYDIESGSIAAFDGATRQFVPLAANPRVCAIPLRQPTAA | soluble
7 | HMNFKMEHQNKRSPLHAAAEAGHVDICHMLVQAGANIDTCSEDQRTPLMEAAENNHLEAVKYLIKAGALVDPKDAEGSTCLHLAAKKGHYEVVQYLLSNGQMDVNCQDDGGWTPMIWATEYKHVDLVKLLLSKGSDINIRDNEENICLHWAAFSGCVDIAEILLAAKCDLHAVNIHGDSPLHIAARENRYDCVVLFLSRDSDVTLKNKEGETPLQCASLNSQVWSALQMSKALQDSA | soluble
8 | MSLSLEYKGTFGSINAGYADWNSGFVNTHRGEVWKVTADFGVNFKEAEFYSFYESNVLNHAVAGRNHTVSAMTHVRLFDSDMTFFGKIYGQWDNSWGDDLDMFYGFGYLGWNGEWGFFKPYIGLHNQSGDYVSAKYGQTNGWNGYVVGWTAVLPFTLFDEKFVLSNWNEIELDRNDAYTEQQFGRNGLNGGLTIAWKFYPRWKASVTWRYFDNKLGYDGFGDQMIYMLGYDFEGHHHHHH | not soluble
9 | MYKQIILACDGSEHALRAAEHATYIAKCSEETNVEVVYVVDNRTAKSDIIQGQTDLETISASRKDKLKEIEGLLKKENISYTITILHGDPGDTIVQYVNTGDIDLVIAGSRGLNTLQEMVLGSVSHKIAKRVKCPVMIVK | not soluble
10 | MLVGERLENEPNFYQEIDFLKHLAGINGVPVVHKHFQYEQKRVLVMDKYLENLEQFRKRKEDEKLSPRVVIKLAFRLVSILEHIHRKGVVHQDIKLDNVVFGAKVGNKLDIVLIDYGIAAFTKPKPPRDLVDGALHCTTDFSSSVYASPGLVQGLKGDPVDDLQMLSFMLLWASKYNPFGEDSLESLRKKKEFIAKPSIFTQGDYKFLRPVISKIMEQKRSKRPDYKAISKKCANKDNYFNPDTAVHLGNAYEFF | not soluble
11 | MKVYVVVPTYNESDNIVALMEKILAQRDNIHVLVVDDNSPDGTGEIAARMSSDNPRIHVLRRSGKMGLGSAYCDGFRVALRDGADFIIEMDADFSHDPATIPALLAATDKYDVVVGSRYLNGVSVVNWPIRRLMLSYFASVYTRFVTGLALRDCTSGFKCFRRRVIESVDLDTIRSDGYSFQIEMNYRCVERGFRVGEIPIIFIDRHAGSSKMSKKIVREAVLMVWKLKLGSLVKKLTRRGDRHAALEHHHHHH | soluble
12 | MGSDKIHHHHHHENLYFQGMRISANFDGGNIETISLANPDDIQLAIRPDAGGEFYQWFNFRFEATIGKTYTLNILNAGGASYLKGWEDYQAVASYDRQTWFRLPTEYKDGKLSISVELDCEAIQIAYFTPYSYERHLDLISAVQLHPLVSTEHLGLTLDGRDMTLVKVGDDDPSKKSIWITARQHPGETMAEWLVEGLLNQLLDNDCPTSKALLDKANFYIVPNMNPDGSVRGHLRTNAVGANLNREWQTPSLERSPEVYYVVNKMHETGVDLFYDVHGDEGLPYVFLAGCEGIPNYSDKLASLQQDFVAALSLASADFQTEFGYDKDEPGKANLTVACNWVANTFKCLSNTLEMPFKDNANLADPFQGWSPERSVYFGEASLIAMRAVIDKIGQ | soluble
13 | MGSDKIHHHHHHMSNQTLKKISELDVFCLMVFKVIFQTGHANIAAKQLNVSAPKISRCLNMLRATFDDELFYRRQLGLKPTPMAEFLYEPVCQFCEAVLKIEQSISEKSSELASERLRVAVTPSIMASLSLAFSRSNARDAFSQLQFVIWGDDSADQIHNGELDMGVTFDACNEHPLSVEALGCLSGVCLAANEEHAIWSQSEPLTLETICRHPFLCLDGKGFNDKIDPLEVFARQNGADIDSIERVSSRDEWYSHLLTMNSVAFLPCSEAEICGALPGIRVVRLSDEEVGRLHGESMSPQYLLLENPAEYRRYSLEQRELIIQLIKQLLVKC | not soluble
14 | MLEIKGLRARIVGTNTEVIRGLNLTVADGEVAAIMGQNGAGKSTLSYLLAGRDDYEVIDGDILYNGQSLLEMDPAERAAYGVFLAFQYPMEIPGVATMEFLKVAMNSQRKARGDQELKIPEFIKCVKEISSKLEINMDMLKRPLNVGFSGGEKKRAEILQMALLEPKLCILDETDSGLDIDALKIVADGVNKLRDPKRSFLVITHYQRLLNYIIPDTVHVLYKGRIIKSGDKSLALYLEQNGYADLIREAA | not soluble
15 | KAPLDEIADDSFWSDETLVKYYVNDLYSEISVDGLQLQENRSDNSVSAQRDKYRASWFKFNYDMVSASDPQDDDVWEDYYVKVRKCNRFFERIGTSTIEESEKSRLTGEVHFLRAMFYFEMVKRYGGVILLDKVLTMEDNWEIPRSSEKECYDFILEDLKKATEMLPASYGSREKGRATKGAAYALKSRVELYDKRYEDVIKSCAEVYKLGYELVDGTTPEKYRSIWWTTNKDNKEIIFDVQYKSPDVYNNMMVCNMVTYINDKYGDRGWGGLGPTQELIDAFEMADGTPATQYSQAPADQVFDINTCGIYEGREPRFYANIVFHGSQIFFNADKGAVTVDRYLMDTPDKGDGSLTGYNVWKWIDYDNYNYPYAGAGSPDFSTNWIILRYAEIYLNDAEARLETGDVEGARKAVNMIRQRVGLPDLTESDPEKLRELIRKERRIEFAFEEQRFYDVRRWKIGPETQTTLHGVRFVSPTEFKVTKTDIRTWNDRLYLTPVPHDEIVRSSVLKQNLGY | soluble
16 | MGLFNNFKFKYTRAQLEIFRFSFCLLAPVAVMYYIGTDTDKKLNVPGFWPDPATLNQIPKEPYEIKAELARMKKERLEKRLRLEKKIQEEFGLDLEEEKEKIKRDLALKKG | soluble
17 | MNIDSDIFKIQSNNVLPSRGKILISEPFLRDATFGRSVVLLIDHTEEGSMGLIINKQLPIFVNDIIKEFKYIENIPLYKGGPIATDTLFYLHTLADIPGAIPISKGLYLNGDFDEIKKYILQGNKVDRYIRFFLGYSGWESEQLSTELKENTWLVSKEENAYLMNGDTKDMWKQALEKLGSKYETWSRFPQVPTFNLEHHHHHH | soluble
18 | MSLSETLRLGLICAGRMGSFHGQTAALRIPGACLAAIADPTPGQAARLATELGVERFYTDPQQLLDDPDIDGVLIAAPARSHAELVISAARAGKGVFCEKPMAITLDEADRAIAAAADAQVTLQVGFNRRFAKSFRTAHLDVVAGRIGTPQLLRSLTRDPALNNPAASPQWVIFLETLIHDFDSLRYLNPGAEAVEVFVMADALIAPDYKSKGFLDTAVVTIRFDNGAIATAEANFQAVYGYDVRGEVFGSAGMLTMGSVNDSDLVRYLANGIQSDTQRLDTDLLRDAYVAELNHFADCLRTGAKPLASGEDARAALAIARACIESFQLGKAVRVEGARSEGHHHHHH | not soluble
19 | NIDEHSLFVNVGERTNVTGSKAFARLILNGGYAEGLVIARSQVENGAQIIDINMDEAMLDSQKAMVTFLNLLAAEPDISRLPIMLDSSKWSVIEAGLKCVQGKAVINSISLKEGEAEFLHHARLARRYGAAVIVMAFDETGQADTLQRKVEICTRCYHTLIEQADFPPEDIIFDPNIFAIATGIEEHSNYAVDFIEATHVIRQTLPYAKVSGGVSNVSFSFRGNEPIREAIHTAFLYHAVKAGMTMGIVNAGQLGVYSDIPPDLLEHVEDVLLNRRPDATERLVEFAEHFKGQKKEQIE | not soluble
20 | GSHMLKGQEFAPSHQQVYAPLRADGDKPRAHLTVVRQTPTQHFKNQFPALHWEHELGLAFTKNRMNYTNKFLLIPESGDYFIYSQVTFRGMTSESSEIRQAGRPNKPDSITVVITKVTDSYPEPTQLLMGTKSVSEVGSNWFQPIYLGAMFSLQEGDKLMVNVSDISLVDYTKEDKTFFGAFLL | soluble
21 | MGSDKIHHHHHHMNRGKALQLVKPHLTEHRYQHTIGVMETAIDLAKLYGADQQKAELAAIFHDYAKFRDKNEMRTLIREKLSQQDILFYGDELLHAPCGAYYVREEVGIEDEDVLQAIRFHTTGRPNMSLLEKIIFLADYIEPNRQFPGVEKVRTQAKTDLNGAIISSLVNTITFLLKKNQPIYPDTLATYNQLLLEQK | not soluble
